Laboratory results as given in the supplement of paper PMC5998384.

Experiments:
HeLa Kyoto [1] = assay: solubility change mitosis vs G1/S (difference of NP-40 vs SDS log2 ratios) (log2 ratio difference); higher = more soluble in mitosis
HeLa Kyoto [2] = assay: solubility in G1/S (NP-40 vs SDS abundance) (log2 ratio); higher = more soluble; details: cell cycle stage: G1/S
HeLa Kyoto [3] = assay: thermal stability score vs G1/S (z-score of summed log2 fold changes over temperatures); higher = more thermally stable than in G1/S
[4] = cell cycle stage: early G1 (4.5 h after nocodazole release)
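Throughout, for solubility change mitosis vs G1/S (difference of NP-40 vs SDS log2 ratios): synchronized HeLa Kyoto cells (double thymidine block for G1/S, nocodazole release for mitosis), protein amounts in NP-40 versus SDS lysates quantified by mass spectrometry, three biological replicates.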
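Throughout, for solubility in G1/S (NP-40 vs SDS abundance): HeLa Kyoto cells arrested at G1/S by double thymidine block, proteins quantified by TMT10plex mass spectrometry in mild NP-40 versus SDS extracts, three biological replicates.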
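Throughout, for thermal stability score vs G1/S (z-score of summed log2 fold changes over temperatures): synchronized HeLa Kyoto cells, proteins quantified by TMT10plex mass spectrometry, three biological replicates, mitosis taken 0.5 h after nocodazole release, G1/S directly after double thymidine block.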

| Substance | solubility change mitosis (log2) (HeLa Kyoto [1]) | solubility in G1/S (log2) (HeLa Kyoto [2]) | thermal stability score (HeLa Kyoto [3]; [4]) | thermal stability score (HeLa Kyoto [3]; cell cycle stage: mitosis) |
| --- | --- | --- | --- | --- |
| MDSQELKTLINYYCQERYFHHVLLVASEGIKRYGSDPVFRFYHAYGTLMEGKTQEALREFEAIKNKQDVSLCSLLALIYAHKMSPNPDREAILESDARVKEQRKGAGEKALYHAGLFLWHIGRHDKAREYIDRMIKISDGSKQGHVLKAWLDITRGKEPYTKKALKYFEEGLQDGNDTFALLGKAQCLEMRQNYSGALETVNQIIVNFPSFLPAFVKKMKLQLALQDWDQTVETAQRLLLQDSQNVEALRMQALYYVCREGDIEKASTKLENLGNTLDAMEPQNAQLFYNITLAFSRTCGRSQLILQKIQTLLERAFSLNPQQSEFATELGYQMILQGRVKEALKWYKTAMTLDETSVSALVGFIQCQLIEGQLQDADQQLEFLNEIQQSIGKSAELIYLHAVLAMKKNKRQEEVINLLNDVLDTHFSQLEGLPLGIQYFEKLNPDFLLEIVMEYLSFCPMQPASPGQPLCPLLRRCISVLETVVRTVPGLLQTVFLIAKVKYLSGDIEAAFNNLQHCLEHNPSYADAHLLLAQVYLSQEKVKLCSQSLELCLSYDFKVRDYPLYHLIKAQSQKKMGEIADAIKTLHMAMSLPGMKRIGASTKSKDRKTEVDTSHRLSIFLELIDVHRLNGEQHEATKVLQDAIHEFSGTSEEVRVTIANADLALAQGDIERALSILQNVTAEQPYFIEAREKMADIYLKHRKDKMLYITCFREIAERMANPRSFLLLGDAYMNILEPEEAIVAYEQALNQNPKDGTLASKMGKALIKTHNYSMAITYYEAALKTGQKNYLCYDLAELLLKLKWYDKAEKVLQHALAHEPVNELSALMEDGRCQVLLAKVYSKMEKLGDAITALQQARELQARVLKRVQMEQPDAVPAQKHLAAEICAEIAKHSVAQRDYEKAIKFYREALVHCETDNKIMLELARLYLAQDDPDSCLRQCALLLQSDQDNEAATMMMADLMFRKQDYEQAVFHLQQLLERKPDNYMTLSRLIDLLRRCGKLEDVPRFFSMAEKRNSRAKLEPGFQYCKGLYLWYTGEPNDALRHFNKARKDRDWGQNALYNMIEICLNPDNETVGGEVFENLDGDLGNSTEKQESVQLAVRTAEKLLKELKPQTVQGHVQLRIMENYCLMATKQKSNVEQALNTFTEIAASEKEHIPALLGMATAYMILKQTPRARNQLKRIAKMNWNAIDAEEFEKSWLLLADIYIQSAKYDMAEDLLKRCLRHNRSCCKAYEYMGYIMEKEQAYTDAALNYEMAWKYSNRTNPAVGYKLAFNYLKAKRYVDSIDICHQVLEAHPTYPKIRKDILDKARASLRP [TTC21B] | -0.211 | -0.116 | 1.06 | 0.205 |
| MEASLGIQMDEPMAFSPQRDRFQAEGSLKKNEQNFKLAGVKKDIEKLYEAVPQLSNVFKIEDKIGEGTFSSVYLATAQLQVGPEEKIALKHLIPTSHPIRIAAELQCLTVAGGQDNVMGVKYCFRKNDHVVIAMPYLEHESFLDILNSLSFQEVREYMLNLFKALKRIHQFGIVHRDVKPSNFLYNRRLKKYALVDFGLAQGTHDTKIELLKFVQSEAQQERCSQNKSHIITGNKIPLSGPVPKELDQQSTTKASVKRPYTNAQIQIKQGKDGKEGSVGLSVQRSVFGERNFNIHSSISHESPAVKLMKQSKTVDVLSRKLATKKKAISTKVMNSAVMRKTASSCPASLTCDCYATDKVCSICLSRRQQVAPRAGTPGFRAPEVLTKCPNQTTAIDMWSAGVIFLSLLSGRYPFYKASDDLTALAQIMTIRGSRETIQAAKTFGKSILCSKEVPAQDLRKLCERLRGMDSSTPKLTSDIQGHASHQPAISEKTDHKASCLVQTPPGQYSGNSFKKGDSNSCEHCFDEYNTNLEGWNEVPDEAYDLLDKLLDLNPASRITAEEALLHPFFKDMSL [CDC7] | 0.0299 | -0.0102 | 2.43 | 2.74 |
| MED13 | -0.112 | -0.213 | -0.573 | -0.435 |
| MEEELQHSHCVNCVSRRCMTRPEPGISCDLIGCPLVCGAVFHSCKADEHRLLCPFERVPCLNSDFGCPFTMARNKVAEHLEMCPASVVCCTMEWNRWPVSYADRKSYENLSRDVDEVAQLDMALALQDQRMLLESLKVATMMSKATDKVSKPREQISVKSSVPEIPHANGLVSVDEESYGALYQATVETTRSLAAALDILNTATRDIGMLNTSVPNDMDEQQNARESLEDQNLKDQDHLYEEEIGAVGGIDYNDTNQNAQSEQNGSSDLLCDLNTSSYDTSALCNGFPLENICTQVIDQNQNLHGDSKQSNLTNGDCVASSDGTSKPSSSLAVAAQLREIIPSSALPNGTVQHILMPDDEGEGELCWKKVDLGDVKNVDVLSFSHAPSFNFLSNSCWSKPKEDKAVDTSDLEVAEDPMGLQGIDLITAALLFCLGDSPGGRGISDSRMADIYHIDVGTQTFSLPSAILATSTMVGEIASASACDHANPQLSNPSPFQTLGLDLVLECVARYQPKQRSMFTFVCGQLFRRKEFSSHFKNVHGDIHAGLNGWMEQRCPLAYYGCTYSQRRFCPSIQGAKIIHDRHLRSFGVQPCVSTVLVEPARNCVLGLHNDHLSSLPFEVLQHIAGFLDGFSLCQLSCVSKLMRDVCGSLLQSRGMVILQWGKRKYPEGNSSWQIKEKVWRFSTAFCSVNEWKFADILSMADHLKKCSYNVVEKREEAIPLPCMCVTRELTKEGRSLRSVLKPVL [FBXO30] | 0.106 | -0.564 | 0.306 | 1.03 |
| MELKVWVDGVQRIVCGVTEVTTCQEVVIALAQAIGRTGRYTLIEKWRDTERHLAPHENPIISLNKWGQYASDVQLILRRTGPSLSERPTSDSVARIPERTLYRQSLPPLAKLRPQIDKSIKRREPKRKSLTFTGGAKGLMDIFGKGKETEFKQKVLNNCKTTADELKKLIRLQTEKLQSIEKQLESNEIEIRFWEQKYNSNLEEEIVRLEQKIKRNDVEIEEEEFWENELQIEQENEKQLKDQLQEIRQKITECENKLKDYLAQIRTMESGLEAEKLQREVQEAQVNEEEVKGKIGKVKGEIDIQGQQSLRLENGIKAVERSLGQATKRLQDKEQELEQLTKELRQVNLQQFIQQTGTKVTVLPAEPIEIEASHADIEREAPFQSGSLKRPGSSRQLPSNLRILQNPISSGFNPEGIYV [RASSF8] | 0.00342 | 0.445 | 0.245 | -0.268 |
| MERGKMAEAESLETAAEHERILREIESTDTACIGPTLRSVYDGEEHGRFMEKLETRIRNHDREIEKMCNFHYQGFVDSITELLKVRGEAQKLKNQVTDTNRKLQHEGKELVIAMEELKQCRLQQRNISATVDKLMLCLPVLEMYSKLRDQMKTKRHYPALKTLEHLEHTYLPQVSHYRFCKVMVDNIPKLREEIKDVSMSDLKDFLESIRKHSDKIGETAMKQAQQQRNLDNIVLQQPRIGSKRKSKKDAYIIFDTEIESTSPKSEQDSGILDVEDEEDDEEVPGAQDLVDFSPVYRCLHIYSVLGARETFENYYRKQRRKQARLVLQPPSNMHETLDGYRKYFNQIVGFFVVEDHILHTTQGLVNRAYIDELWEMALSKTIAALRTHSSYCSDPNLVLDLKNLIVLFADTLQVYGFPVNQLFDMLLEIRDQYSETLLKKWAGIFRNILDSDNYSPIPVTSEEMYKKVVGQFPFQDIELEKQPFPKKFPFSEFVPKVYNQIKEFIYACLKFSEDLHLSSTEVDDMIRKSTNLLLTRTLSNSLQNVIKRKNIGLTELVQIIINTTHLEKSCKYLEEFITNITNVLPETVHTTKLYGTTTFKDARHAAEEEIYTNLNQKIDQFLQLADYDWMTGDLGNKASDYLVDLIAFLRSTFAVFTHLPGKVAQTACMSACKHLATSLMQLLLEAEVRQLTLGALQQFNLDVRECEQFARSGPVPGFQEDTLQLAFIDLRQLLDLFIQWDWSTYLADYGQPNCKYLRVNPVTALTLLEKMKDTSRKNNMFAQFRKNERDKQKLIDTVAKQLRGLISSHHS [EXOC6B] | -0.0208 | -0.17 | 0.0917 | 0.56 |
| MERRSRRKSRRNGRSTAGKAAATQPAKSPGAQLWLFPSAAGLHRALLRRVEVTRQLCCSPGRLAVLERGGAGVQVHQLLAGSGGARTPKCIKLGKNMKIHSVDQGAEHMLILSSDGKPFEYDNYSMKHLRFESILQEKKIIQITCGDYHSLALSKGGELFAWGQNLHGQLGVGRKFPSTTTPQIVEHLAGVPLAQISAGEAHSMALSMSGNIYSWGKNECGQLGLGHTESKDDPSLIEGLDNQKVEFVACGGSHSALLTQDGLLFTFGAGKHGQLGHNSTQNELRPCLVAELVGYRVTQIACGRWHTLAYVSDLGKVFSFGSGKDGQLGNGGTRDQLMPLPVKVSSSEELKLESHTSEKELIMIAGGNQSILLWIKKENSYVNLKRTIPTLNEGTVKRWIADVETKRWQSTKREIQEIFSSPACLTGSFLRKRRTTEMMPVYLDLNKARNIFKELTQKDWITNMITTCLKDNLLKRLPFHSPPQEALEIFFLLPECPMMHISNNWESLVVPFAKVVCKMSDQSSLVLEEYWATLQESTFSKLVQMFKTAVICQLDYWDESAEENGNVQALLEMLKKLHRVNQVKCQLPESIFQVDELLHRLNFFVEVCRRYLWKMTVDASENVQCCVIFSHFPFIFNNLSKIKLLHTDTLLKIESKKHKAYLRSAAIEEERESEFALRPTFDLTVRRNHLIEDVLNQLSQFENEDLRKELWVSFSGEIGYDLGGVKKEFFYCLFAEMIQPEYGMFMYPEGASCMWFPVKPKFEKKRYFFFGVLCGLSLFNCNVANLPFPLALFKKLLDQMPSLEDLKELSPDLGKNLQTLLDDEGDNFEEVFYIHFNVHWDRNDTNLIPNGSSITVNQTNKRDYVSKYINYIFNDSVKAVYEEFRRGFYKMCDEDIIKLFHPEELKDVIVGNTDYDWKTFEKNARYEPGYNSSHPTIVMFWKAFHKLTLEEKKKFLVFLTGTDRLQMKDLNNMKITFCCPESWNERDPIRALTCFSVLFLPKYSTMETVEEALQEAINNNRGFG [HERC5] | 0.525 | -1.44 | -0.386 | -1.53 |
| METRYNLKSPAVKRLMKEAAELKDPTDHYHAQPLEDNLFEWHFTVRGPPDSDFDGGVYHGRIVLPPEYPMKPPSIILLTANGRFEVGKKICLSISGHHPETWQPSWSIRTALLAIIGFMPTKGEGAIGSLDYTPEERRALAKKSQDFCCEGCGSAMKDVLLPLKSGSDSSQADQEAKELARQISFKAEVNSSGKTISESDLNHSFSLTDLQDDIPTTFQGATASTSYGLQNSSAASFHQPTQPVAKNTSMSPRQRRAQQQSQRRLSTSPDVIQGHQPRDNHTDHGGSAVLIVILTLALAALIFRRIYLANEYIFDFEL [UBE2J1] | 0.00691 | 0.222 | -0.0441 | 1.77 |
| MFSVLSYGRLVARAVLGGLSQTDPRAGGGGGGDYGLVTAGCGFGKDFRKGLLKKGACYGDDACFVARHRSADVLGVADGVGGWRDYGVDPSQFSGTLMRTCERLVKEGRFVPSNPIGILTTSYCELLQNKVPLLGSSTACIVVLDRTSHRLHTANLGDSGFLVVRGGEVVHRSDEQQHYFNTPFQLSIAPPEAEGVVLSDSPDAADSTSFDVQLGDIILTATDGLFDNMPDYMILQELKKLKNSNYESIQQTARSIAEQAHELAYDPNYMSPFAQFACDNGLNVRGGKPDDITVLLSIVAEYTD [PPTC7] | -0.0876 | -0.0546 | -1.55 | -0.178 |
| MGGGDLNLKKSWHPQTLRNVEKVWKAEQKHEAERKKIEELQRELREERAREEMQRYAEDVGAVKKKEEKLDWMYQGPGGMVNRDEYLLGRPIDKYVFEKMEEKEAGCSSETGLLPGSIFAPSGANSLLDMASKIREDPLFIIRKKEEEKKREVLNNPVKMKKIKELLQMSLEKKEKKKKKEKKKKHKKHKHRSSSSDRSSSEDEHSAGRSQKKMANSSPVLSKVPGYGLQVRNSDRNQGLQGPLTAEQKRGHGMKNHSRSRSSSHSPPRHASKKSTREAGSRDRRSRSLGRRSRSPRPSKLHNSKVNRRETGQTRSPSPKKEVYQRRHAPGYTRKLSAEELERKRQEMMENAKWREEERLNILKRHAKDEEREQRLEKLDSRDGKFIHRMKLESASTSSLEDRVKRNIYSLQRTSVALEKNFMKR [CWC25] | 0.463 | -0.718 | -0.522 | -0.488 |
